# Laboratory results from US20110281938, “APTAMERS TO TISSUE FACTOR PATHWAY INHIBITOR AND THEIR USE AS BLEEDING DISORDER THERAPEUTICS” (Baxter Healthcare S.A., published 2011).
# Biological target: T1, TFPI (tissue factor pathway inhibitor, full-length) (Homo sapiens, UniProt P10646 SEQ:1-276)
# Test: competition; meets binding-competition criterion
# Conditions: tags: American Diagnostica 4500PC/4900PC, E. coli expressed
# Experimental: (§1) The substituted ARC17480 molecules were assayed for binding and function. The assays used for this evaluation were the calibrated automated thrombogram (CAT) assay, a dot-blot binding-competition assay and a FXa activity assay. The results of these assays are summarized in Table 40 and depicted in FIG. 147. A mutation was considered tolerated for activity if it met the criteria of at least two of the three assays that were carried out. Mutations that are tolerated (“yes”) and not tolerated (“no”) are identified in Table 40. The experimental details and the criteria used for each assay are described in the following paragraphs. The molecules described in this example were first tested in the CAT assay and the dot-blot binding-competition assay. In most cases, molecules were only tested in the FXa assay if there was a discrepancy between the results in the CAT assay and the dot-blot binding-competition assay.
# (§2) Each molecule was evaluated for binding to tissue factor pathway inhibitor (TFPI) in a binding-competition assay. For these experiments, 10 nM human TFPI (American Diagnostica, Stamford, Conn., catalog #4900PC) was incubated with trace amounts of radiolabeled ARC17480 and 5000 nM, 1666.67 nM, 555.56 nM, 185.19 nM, 61.73 nM, 20.58 nM, 6.86 nM, 2.29 nM, 0.76 nM or 0.25 nM of unlabeled competitor aptamer. ARC17480 was included as a competitor in every experiment as a control. For each molecule, the percentage of radiolabeled ARC17480 bound at each competitor aptamer concentration was used for analysis. The percentage of radiolabeled ARC17480 bound was plotted as a function of aptamer concentration and fit to the equation y=(max/(1+x/IC₅₀))+int, where y=the percentage of radiolabeled ARC17480 bound, x=the concentration of aptamer, max=the maximum radiolabeled ARC17480 bound, and int=the y-intercept, to generate an IC₅₀ value for binding-competition. The IC₅₀ of each aptamer was compared to the IC₅₀ of ARC17480 that was evaluated in the same experiment. A mutation was considered tolerated in the binding-competition assay if the IC₅₀ of that molecule was not more than 5-fold greater than that of ARC17480 evaluated in the same experiment. Tolerated mutations are indicated in Table 40 as meeting the assay criteria (“yes”) or not meeting the assay criteria (“no”).
# T1 sequence (P10646 29-304): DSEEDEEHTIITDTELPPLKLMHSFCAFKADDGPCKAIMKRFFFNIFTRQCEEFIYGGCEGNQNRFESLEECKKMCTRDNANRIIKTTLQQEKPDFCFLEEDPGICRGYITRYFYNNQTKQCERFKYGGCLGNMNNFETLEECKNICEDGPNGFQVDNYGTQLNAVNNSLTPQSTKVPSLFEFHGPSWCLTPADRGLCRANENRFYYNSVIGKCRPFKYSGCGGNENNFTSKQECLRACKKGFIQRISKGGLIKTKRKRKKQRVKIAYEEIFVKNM
row,Binder,binding signal
1,"GGAAUAUACUUGGCUCGUCAGGUGCGUAUAUA (mixed, 2'-OMe A/G/U and mC19, other C 2'-deoxy, 3' idT) [ARC33167]",≤ 5 fold IC50 of ARC17480
2,"GGAAUAUACUUGGCUCGUUAGGUGCGUAUAUU (mixed, 2'-OMe A/G/U, 2'-deoxy C, 3' idT) [ARC33180]",≤ 5 fold IC50 of ARC17480
3,"GGAAUAUACUUGGCUCGUUAGGUGCGUAUUUA (mixed, 2'-OMe A/G/U, 2'-deoxy C, 3' idT) [ARC33178]",≤ 5 fold IC50 of ARC17480
4,"GGAAUAUACCUGGCUCGUUAGGUGCGUAUAUA (mixed, 2'-OMe A/G/U and mC10, other C 2'-deoxy, 3' idT) [ARC33158]",≤ 5 fold IC50 of ARC17480
5,"UGAAUAUACUUGGCUCGUUAGGUGCGUAUAUA (mixed, 2'-OMe A/G/U, 2'-deoxy C, 3' idT) [ARC33149]",≤ 5 fold IC50 of ARC17480
6,"GGUAUAUACUUGGCUCGUUAGGUGCGUAUAUA (mixed, 2'-OMe A/G/U, 2'-deoxy C, 3' idT) [ARC33151]",≤ 5 fold IC50 of ARC17480
7,"GGAUUAUACUUGGCUCGUUAGGUGCGUAUAUA (mixed, 2'-OMe A/G/U, 2'-deoxy C, 3' idT) [ARC33152]",≤ 5 fold IC50 of ARC17480
8,"GGAACAUACUUGGCUCGUUAGGUGCGUAUAUA (mixed, 2'-OMe A/G/U and mC5, other C 2'-deoxy, 3' idT) [ARC33153]",≤ 5 fold IC50 of ARC17480
9,"GUAAUAUACUUGGCUCGUUAGGUGCGUAUAUA (mixed, 2'-OMe A/G/U, 2'-deoxy C, 3' idT) [ARC33150]",≤ 5 fold IC50 of ARC17480
10,"GGAAUAUACUUGGCUCGUUAGGUGCGUAUACA (mixed, 2'-OMe A/G/U and mC31, other C 2'-deoxy, 3' idT) [ARC33179]",≤ 5 fold IC50 of ARC17480

# Biological target: T1, TFPI (tissue factor pathway inhibitor, …)
# Test: competition; dot-blot
# Conditions: tags: American Diagnostica 4500PC/4900PC, E. coli expressed
# Experimental: as §1, §2
row,Binder,binding signal [fold IC50 vs ARC17480]
1,"CGAAUAUACUUGGCUCGUUAGGUGCGUAUAUA (XNA, 2'-OMe except dC9, dC14, dC16, dC25; 3' idT) [ARC34857]",≤ 5
2,"GAAAUAUACUUGGCUCGUUAGGUGCGUAUAUA (XNA, 2'-OMe except dC9, dC14, dC16, dC25; 3' idT) [ARC34858]",≤ 5
3,"GGCAUAUACUUGGCUCGUUAGGUGCGUAUAUA (XNA, 2'-OMe except dC9, dC14, dC16, dC25; 3' idT) [ARC34861]",≤ 5
4,"GGGAUAUACUUGGCUCGUUAGGUGCGUAUAUA (XNA, 2'-OMe except dC9, dC14, dC16, dC25; 3' idT) [ARC34860]",≤ 5
5,"GCAAUAUACUUGGCUCGUUAGGUGCGUAUAUA (XNA, 2'-OMe except dC9, dC14, dC16, dC25; 3' idT) [ARC34859]",≤ 5

# Biological target: T1, TFPI (tissue factor pathway inhibitor, …)
# Test: competition; meets binding-competition criterion
# Conditions: tags: American Diagnostica 4500PC/4900PC, E. coli expressed
# Remark: another data set of the same source
# Experimental: Each molecule was evaluated for binding to tissue factor pathway inhibitor (TFPI) in a binding-competition assay. For these experiments, 10 nM human TFPI (American Diagnostica, Stamford, Conn., catalog #4500PC) was incubated with trace amounts of radiolabeled ARC17480 and 5000 nM, 1666.67 nM, 555.56 nM, 185.19 nM, 61.73 nM, 20.58 nM, 6.86 nM, 2.29 nM, 0.76 nM or 0.25 nM of unlabeled competitor aptamer. ARC17480 was included as a competitor in every experiment as a control. For each molecule, the percentage of radiolabeled ARC17480 bound at each competitor aptamer concentration was used for analysis. The percentage of radiolabeled ARC17480 bound was plotted as a function of aptamer concentration and fit to the equation y=(max/(1+x/IC₅₀))+int, where y=the percentage of radiolabeled ARC17480 bound, x=the concentration of aptamer, max=the maximum radiolabeled ARC17480 bound, and int=the y-intercept, to generate an IC₅₀ value for binding-competition. The IC₅₀ of each aptamer was compared to the IC₅₀ of ARC17480 that was evaluated in the same experiment. A substitution was considered tolerated in the binding-competition assay if the IC₅₀ of that molecule was not more than 5-fold greater than that of ARC17480 evaluated in the same experiment. Tolerated substitutions are indicated in Table 38 as meeting the assay criteria (“yes”) or not meeting the assay criteria (“no”).
row,Binder,binding signal
1,"AUAUACUUGGCUCGUUAGGUGCGUAU (mixed, 2'-OMe A/G/U, 2'-deoxy C, 3' idT) [ARC32307]",≤ 5 fold IC50 of ARC17480
2,"GGAAUACUUGGCUCGUUAGGUGCGUAUAUA (mixed, 2'-OMe A/G/U, 2'-deoxy C, 3' idT) [ARC33907]",≤ 5 fold IC50 of ARC17480
3,"AUAUACUUGGCUCGUUAGGUGCGUAUA (mixed, 2'-OMe A/G/U, 2'-deoxy C, 3' idT) [ARC33890]",≤ 5 fold IC50 of ARC17480
4,"UUACUUGGCUCGUUAGGUGCGUAUA (mixed, 2'-OMe A/G/U, 2'-deoxy C, 3' idT) [ARC33900]",≤ 5 fold IC50 of ARC17480
5,"AUAUACUUGGCUCGUUAGGUGCGUAUAUA (mixed, 2'-OMe A/G/U, 2'-deoxy C, 3' idT) [ARC32303]",≤ 5 fold IC50 of ARC17480
6,"AAUAUACUUGGCUCGUUAGGUGCGUAUA (mixed, 2'-OMe A/G/U, 2'-deoxy C, 3' idT) [ARC32306]",≤ 5 fold IC50 of ARC17480
7,"GAAUAUACUUGGCUCGUUAGGUGCGUAUAU (mixed, 2'-OMe A/G/U, 2'-deoxy C, 3' idT) [ARC32305]",≤ 5 fold IC50 of ARC17480
8,"UAUACUUGGCUCGUUAGGUGCGUAUA (mixed, 2'-OMe A/G/U, 2'-deoxy C, 3' idT) [ARC33891]",≤ 5 fold IC50 of ARC17480
9,"GGUAUACUUGGCUCGUUAGGUGCGUAUAUA (mixed, 2'-OMe A/G/U, 2'-deoxy C, 3' idT) [ARC33144]",≤ 5 fold IC50 of ARC17480
10,"AUACUUGGCUCGUUAGGUGCGUAUA (mixed, 2'-OMe A/G/U, 2'-deoxy C, 3' idT) [ARC33895]",≤ 5 fold IC50 of ARC17480
